From article PMC314469, “Protein Interaction Networks by Proteome Peptide Scanning” (PLoS Biology, 2004)

T1: Rvs167 SH3 (RV167_YEAST), P39743
T1 chain: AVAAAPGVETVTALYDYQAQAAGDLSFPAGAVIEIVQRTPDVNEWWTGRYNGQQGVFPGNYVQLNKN

T2: Boi1 SH3 (BOI1_YEAST), P38041
T2 chain: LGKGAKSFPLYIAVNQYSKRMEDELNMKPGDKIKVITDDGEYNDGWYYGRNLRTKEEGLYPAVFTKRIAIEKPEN

T3: Yhr016c SH3 (YSC84_YEAST), P32793
T3 chain: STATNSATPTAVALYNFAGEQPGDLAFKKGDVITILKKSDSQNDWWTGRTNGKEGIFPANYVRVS

T4: Myo5 SH3 (MYO5_YEAST), Q04439
T4 chain: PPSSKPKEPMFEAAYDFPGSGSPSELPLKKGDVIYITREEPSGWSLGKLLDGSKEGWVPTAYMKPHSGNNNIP

T5: Yfr024 SH3 (LSB3_YEAST), P43603
T5 chain: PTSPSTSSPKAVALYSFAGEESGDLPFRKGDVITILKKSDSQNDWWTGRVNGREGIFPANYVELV

T6: Boi2 SH3 (BOI2_YEAST), P39969
T6 chain: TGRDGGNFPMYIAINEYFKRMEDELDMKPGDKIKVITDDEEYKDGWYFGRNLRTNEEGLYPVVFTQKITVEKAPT


Legend:
Assay in all cases: SPOT array
[1] = target: T1, Rvs167 SH3 (RV167_YEAST), P39743
[2] = target: T2, Boi1 SH3 (BOI1_YEAST), P38041
[3] = target: Sho1 SH3 (SHO1_YEAST), P40073
[4] = target: T3, Yhr016c SH3 (YSC84_YEAST), P32793
[5] = target: T4, Myo5 SH3 (MYO5_YEAST), Q04439
[6] = target: T5, Yfr024 SH3 (LSB3_YEAST), P43603
[7] = target: T6, Boi2 SH3 (BOI2_YEAST), P39969

Sequence of Sho1 SH3 (SHO1_YEAST), P40073 (P40073 295-366): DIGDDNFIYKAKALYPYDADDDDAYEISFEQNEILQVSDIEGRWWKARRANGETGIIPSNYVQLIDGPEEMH

Row | Binder | normalised SPOT signal, Boehringer light units (BLU); mean over the file's lines of this peptide [1] | normalised SPOT signal, Boehringer light units (BLU); mean over the file's lines of this peptide [2] | normalised SPOT signal, Boehringer light units (BLU); mean over the file's lines of this peptide [3] | normalised SPOT signal, Boehringer light units (BLU); mean over the file's lines of this peptide [4] | normalised SPOT signal, Boehringer light units (BLU); mean over the file's lines of this peptide [5] | normalised SPOT signal, Boehringer light units (BLU); mean over the file's lines of this peptide [6] | normalised SPOT signal, Boehringer light units (BLU); mean over the file's lines of this peptide [7]
1 | KQAKRAPPSSPYVV [YDR406W 496-509] | 19.4 | 470 | 127 | 20.9 | 295 | 152 | 2.9
2 | KQLMKNLPKIPLLN [YDR228C 355-368] | 130 | 594 | 36400 | 95.2 | 580 | 794 | 9.8
3 | KRRSKSLPTTPGIR [YER054C 189-202] | 17.6 | 310 | 29800 | 34.5 | 592 | 562 | 0.8
4 | KSYRKADPTNPQGW [YBR055C 231-244] | 56 | 78.2 | 29 | 9.6 | 103 | 94.7 | 0
5 | KSIPRTKPNVPPLQ [YDR466W 448-461] | 39.9 | 613 | 46.8 | 27.5 | 343 | 62.6 | 5.4
6 | KRKAKAPPPPPPPP [YDL146W 469-482] | 31.2 | 1100 | 17.5 | 11.5 | 4030 | 19.3 | 22.4
7 | KPAGRPIPPAPTHY [YGR058W 101-114] | 2260 | 90.4 | 115 | 2860 | 189 | 4480 | 0
8 | KTGRKTFPFLPYQI [YGL012W 364-377] | 56.2 | 129 | 140 | 26.1 | 466 | 171 | 29.6
9 | KQRIRKIPGIPLMS [YDR339C 161-174] | 3830 | 800 | 179 | 1120 | 622 | 12300 | 108
10 | KRRSKSLPITPKSI [YIL045W 157-170] | 125 | 585 | 19400 | 58.1 | 921 | 559 | 6.2

Second part, the binder after the results:

Row | normalised SPOT signal, Boehringer light units (BLU); mean over the file's lines of this peptide [1] | normalised SPOT signal, Boehringer light units (BLU); mean over the file's lines of this peptide [2] | normalised SPOT signal, Boehringer light units (BLU); mean over the file's lines of this peptide [3] | normalised SPOT signal, Boehringer light units (BLU); mean over the file's lines of this peptide [4] | normalised SPOT signal, Boehringer light units (BLU); mean over the file's lines of this peptide [5] | normalised SPOT signal, Boehringer light units (BLU); mean over the file's lines of this peptide [6] | normalised SPOT signal, Boehringer light units (BLU); mean over the file's lines of this peptide [7] | Binder
11 | 112 | 815 | 38.8 | 50.8 | 245 | 134 | 0 | KSLQKFEPRYPKTA [YMR014W 24-37]
12 | 41 | 36.2 | 0 | 11.2 | 27800 | 74.8 | 16.7 | KNPTKSPPPPPSPS [YLR337C 698-711]
13 | 2030 | 196 | 84.8 | 142 | 104 | 1080 | 6.5 | KNLLREIPQVPAFQ [YLR077W 141-154]
14 | 102 | 291 | 99.9 | 66.6 | 271 | 462 | 11.9 | KQSKRARPSSPYTV [YOR153W 486-499]
15 | 31.6 | 33.6 | 97.1 | 44.3 | 516 | 680 | 26.3 | KQKKKPTPTRPYNY [YKL089W 339-352]
16 | 80.4 | 767 | 151 | 109 | 468 | 751 | 28.7 | KQLKKQGPKRPSSA [YKL032C 354-367]
